The record followed here is the supplement of paper PMC11246515.

This data set in a line: total protein half-life in vivo (active degradation + dilution); higher = more stable protein.
The mark [1] stands for this setting: E. coli NCM3722 delta-clpP delta-lon delta-hslV, growth: N-lim chemostat, doubling time 6 h.
[2] abbreviates: E. coli NCM3722 delta-clpP, growth: N-lim chemostat, doubling time 6 h.
The mark [3] stands for this setting: E. coli NCM3722 delta-hslV, growth: N-lim chemostat, doubling time 6 h.
Where [4] appears, read: E. coli NCM3722 delta-lon, growth: N-lim chemostat, doubling time 6 h.
The mark [5] stands for this setting: E. coli NCM3722 delta-smpB, growth: N-lim chemostat, doubling time 6 h.
Where [6] appears, read: wild type E. coli NCM3722, growth: C-lim chemostat, doubling time 3 h.
Setting [7] is: wild type E. coli NCM3722, growth: C-lim chemostat, doubling time 6 h.
The mark [8] stands for this setting: wild type E. coli NCM3722, growth: C-lim chemostat, doubling time 12 h.
Setting [9] is: wild type E. coli NCM3722, growth: N-lim chemostat, doubling time 6 h.
Where [10] appears, read: wild type E. coli NCM3722, growth: N-lim chemostat, doubling time 12 h.
The mark [11] stands for this setting: wild type E. coli NCM3722, growth: P-lim chemostat, doubling time 6 h.
Setting [12] is: wild type E. coli NCM3722, growth: P-lim chemostat, doubling time 12 h.

± gives the standard deviation of the averaged measurements.

In the case of “MMNKSNFEFLKGVNDFTYAIACAAENNYPDDPNTTLIKMRMFGEATAKHLGLLLNIPPCENQHDLLRELGKIAFVDDNILSVFHKLRRIGNQAVHEYHNDLNDAQMCLRLGFRLAVWYYRLVTKDYDFPVPVFVLPERGENLYHQEVLTLKQQLEQQVREKAQTQAEVEAQQQKLVALNGYIAILEGKQQETEAQTQARLAALEAQLAEKNAELAKQTEQERKAYHKEITDQAIKRTLNLSEEESRFLIDAQLRKAGWQADSKTLRFSKGARPEPGVNKAIAEWPTGKDETGNQGFADYVLFVGLKPIAVVEAKRNNIDVPARLNESYRYSKCFDNGFLRETLLEHYSPDEVHEAVPEYETSWQDTSGKQRFKIPFCYSTNGREYRATMKTKSGIWYRDVRDTRNMSKALPEWHRPEELLEMLGSEPQKQNQWFADNPGMSELGLRYYQEDAVRAVEKAIVKGQQEILLAMATGTGKTRTAIAMMFRLIQSQRFKRILFLVDRRSLGEQALGAFEDTRINGDTFNSIFDIKGLTDKFPEDSTKIHVATVQSLVKRTLQSDEPMPVARYDCIVVDEAHRGYILDKEQTEGELQFRSQLDYVSAYRRILDHFDAVKIALTATPALHTVQIFGEPVYRYTYRTAVIDGFLIDQDPPIQIITRNAQEGVYLSKGEQVERISPQGEVINDTLEDDQDFEVADFNRGLVIPAFNRAVCNELTNYLDPTGSQKTLVFCVTNAHADMVVEELRAAFKKKYPQLEHDAIIKITGDADKDARKVQTMITRFNKERLPNIVVTVDLLTTGVDIPSICNIVFLRKVRSRILYEQMKGRATRLCPEVNKTSFKIFDCVDIYSTLESVDTMRPVVVRPKVELQTLVNEITDSETYKITEADGRSFAEHSHEQLVAKLQRIIGLATFNRDRSETIDKQVRRLDELCQDAAGVNFNGFASRLREKGPHWSAEVFNKLPGFIARLEKLKTDINNLNDAPIFLDIDDEVVSVKSLYGDYDTPQDFLEAFDSLVQRSPNAQPALQAVINRPRDLTRKGLVELQEWFDRQHFEESSLRKAWKETRNEDIAARLIGHIRRAAVGDALKPFEERVDHALTRIKGENDWSSEQLSWLDRLAQALKEKVVLDDDVFKTGNFHRRGGKAMLQRTFDDNLDTLLGKFSDYIWDELA”, the “total protein half-life in vivo” value turned out to be 5.34 ± 0.76 h under setting [1]; 4.93 ± 0.26 h under setting [2]; 3.45 ± 0.22 h under setting [3]; 3.899 ± 0.015 h under setting [4]; 3.07 ± 0.13 h under setting [5]; 2.49 ± 0.13 h under setting [6]. For the same sequence, the “total protein half-life in vivo” value is 4.7 ± 0.1 h under setting [7]; 7.2 ± 0.38 h under setting [8]; 3.52 ± 0.2 h under setting [9]; 5.31 ± 0.98 h under setting [10]; 3.94 ± 0.11 h under setting [11]; 6.58 ± 0.092 h under setting [12].
For “MKKLQIAVGIIRNENNEIFITRRAADAHMANKLEFPGGKIEMGETPEQAVVRELQEEVGITPQHFSLFEKLEYEFPDRHITLWFWLVERWEGEPWGKEGQPGEWMSLVGLNADDFPPANEPVIAKLKRL”, the “total protein half-life in vivo” value under setting [1] worked out at 4.64 ± 0.53 h; the “total protein half-life in vivo” value under setting [3] was found to be 4.58 ± 0.57 h; the “total protein half-life in vivo” value under setting [4] stood at 5.1 h; the “total protein half-life in vivo” value under setting [5] was 5.16 ± 1.3 h; the “total protein half-life in vivo” value under setting [6] is 3.35 ± 0.21 h; the “total protein half-life in vivo” value under setting [7] turned out to be 5.04 ± 0.078 h. Besides, the “total protein half-life in vivo” value reads like this: under setting [8], 9.03 ± 0.32 h; under setting [9], 4.16 ± 0.41 h; under setting [10], 6.87 ± 0.51 h; under setting [11], 4.48 ± 0.6 h; under setting [12], 11 ± 1.5 h.
Turning to “MAILGLGTDIVEIARIEAVIARSGDRLARRVLSDNEWAIWKTHHQPVRFLAKRFAVKEAAAKAFGTGIRNGLAFNQFEVFNDELGKPRLRLWGEALKLAEKLGVANMHVTLADERHYACATVIIES”, the “total protein half-life in vivo” value was determined as 5.28 ± 0.087 h under setting [1]; 5.71 ± 0.46 h under setting [4]; 5.093 ± 0.018 h under setting [5]; 2.85 ± 0.081 h under setting [6]; 5.87 ± 0.26 h under setting [7]; 12.9 ± 2.6 h under setting [8]. Besides, the “total protein half-life in vivo” value runs as follows: under setting [9], 5.35 ± 0.61 h; under setting [10], 11.2 ± 1.1 h; under setting [11], 5.72 ± 0.41 h; under setting [12], 11.5 ± 0.7 h.
Regarding “MLSTQFNRDNQYQAITKPSLLAGCIALALLPSAAFAAPATEETVIVEGSATAPDDGENDYSVTSTSAGTKMQMTQRDIPQSVTIVSQQRMEDQQLQTLGEVMENTLGISKSQADSDRALYYSRGFQIDNYMVDGIPTYFESRWNLGDALSDMALFERVEVVRGATGLMTGTGNPSAAINMVRKHATSREFKGDVSAEYGSWNKERYVADLQSPLTEDGKIRARIVGGYQNNDSWLDRYNSEKTFFSGIVDADLGDLTTLSAGYEYQRIDVNSPTWGGLPRWNTDGSSNSYDRARSTAPDWAYNDKEINKVFMTLKQQFADTWQATLNATHSEVEFDSKMMYVDAYVNKADGMLVGPYSNYGPGFDYVGGTGWNSGKRKVDALDLFADGSYELFGRQHNLMFGGSYSKQNNRYFSSWANIFPDEIGSFYNFNGNFPQTDWSPQSLAQDDTTHMKSLYAATRVTLADPLHLILGARYTNWRVDTLTYSMEKNHTTPYAGLVFDINDNWSTYASYTSIFQPQNDRDSSGKYLAPITGNNYELGLKSDWMNSRLTTTLAIFRIEQDNVAQSTGTPIPGSNGETAYKAVDGTVSKGVEFELNGAITDNWQLTFGATRYIAEDNEGNAVNPNLPRTTVKMFTSYRLPVMPELTVGGGVNWQNRVYTDTVTPYGTFRAEQGSYALVDLFTRYQVTKNFSLQGNVNNLFDKTYDTNVEGSIVYGTPRNFSITGTYQF”, the “total protein half-life in vivo” value is 3.33 ± 0.05 h under setting [6] and above 16 h under setting [8].
Turning to “MSVLQVLHIPDERLRKVAKPVEEVNAEIQRIVDDMFETMYAEEGIGLAATQVDIHQRIIVIDVSENRDERLVLINPELLEKSGETGIEEGCLSIPEQRALVPRAEKVKIRALDRDGKPFELEADGLLAICIQHEMDHLVGKLFMDYLSPLKQQRIRQKVEKLDRLKARA [P0A6K3]”, the “total protein half-life in vivo” value under setting [1] was 5.89 ± 0.28 h; the “total protein half-life in vivo” value under setting [2] stood at 4.94 ± 1.4 h; the “total protein half-life in vivo” value under setting [3] was 3.19 ± 0.11 h; the “total protein half-life in vivo” value under setting [4] amounted to 3.686 ± 0.032 h; the “total protein half-life in vivo” value under setting [5] stood at 2.84 ± 0.43 h; the “total protein half-life in vivo” value under setting [6] worked out at 2.6 ± 0.4 h. In addition, the “total protein half-life in vivo” value by setting is: under setting [7], 3.936 ± 0.014 h; under setting [8], 6.33 ± 0.35 h; under setting [9], 3.12 ± 0.3 h; under setting [10], 4.58 ± 0.57 h; under setting [11], 4.29 h; under setting [12], 8.94 ± 0.6 h.
For the sequence “MNTPAQLSLPLYLPDDETFASFWPGDNSSLLAALQNVLRQEHSGYIYLWAREGAGRSHLLHAACAELSQRGDAVGYVPLDKRTWFVPEVLDGMEHLSLVCIDNIECIAGDELWEMAIFDLYNRILESGKTRLLITGDRPPRQLNLGLPDLASRLDWGQIYKLQPLSDEDKLQALQLRARLRGFELPEDVGRFLLKRLDREMRTLFMTLDQLDRASITAQRKLTIPFVKEILKL”, the “total protein half-life in vivo” value under setting [1] stood at 5.11 ± 0.35 h; the “total protein half-life in vivo” value under setting [2] amounted to 4.947 ± 0.022 h; the “total protein half-life in vivo” value under setting [3] was found to be 5.42 ± 0.81 h; the “total protein half-life in vivo” value under setting [4] turned out to be 4.21 ± 0.21 h; the “total protein half-life in vivo” value under setting [5] is 4.29 ± 0.12 h; the “total protein half-life in vivo” value under setting [6] is 2.74 ± 0.07 h. The “total protein half-life in vivo” value under setting [7] worked out at 5.7 ± 1.3 h; the “total protein half-life in vivo” value under setting [8] worked out at 9.48 ± 1.9 h; the “total protein half-life in vivo” value under setting [9] stood at 4.404 ± 0.034 h; the “total protein half-life in vivo” value under setting [10] turned out to be 7.28 ± 0.61 h; the “total protein half-life in vivo” value under setting [11] was 5.14 ± 0.064 h; the “total protein half-life in vivo” value under setting [12] turned out to be 10.6 ± 0.12 h.
